For the assay, the target named is recombinant mature human CD73 (soluble CD73, GPI anchor signal peptide replaced by a C-terminal 6x-histidine tag) (human). Briefly: SEC-MALS. (In general: SEC sorts molecules by how far they enter the pores of the column.)

For orientation: stoichiometry N means the number of molecules, sites or subunits per partner or assembly. Take “recombinant mature human CD73 (soluble CD73, GPI anchor signal peptide replaced by a C-terminal 6x-histidine tag) (enzyme)”: the stoichiometry N turned out to be 2.

Source of the values: paper PMC5037986.
